Data on five molecules can be found in patent US5861498A, “Nucleotides encoding immunophilin FKBP46 and fragments thereof” (Thomas Jefferson University, priority 1996, dated 1999).

The test system of series [1] is N-succinyl-Ala-Leu-Pro-Phe-p-nitroanilide. To be noted: literature value for comparison (ref 19); cited from earlier work.
For series [2], the target named is T1, FKBP46 (Spodoptera frugiperda, UniProt Q26486).
T1 construct: Nuclear extract containing full-length FKBP46; made in house
T1 sequence (Q26486 1-412): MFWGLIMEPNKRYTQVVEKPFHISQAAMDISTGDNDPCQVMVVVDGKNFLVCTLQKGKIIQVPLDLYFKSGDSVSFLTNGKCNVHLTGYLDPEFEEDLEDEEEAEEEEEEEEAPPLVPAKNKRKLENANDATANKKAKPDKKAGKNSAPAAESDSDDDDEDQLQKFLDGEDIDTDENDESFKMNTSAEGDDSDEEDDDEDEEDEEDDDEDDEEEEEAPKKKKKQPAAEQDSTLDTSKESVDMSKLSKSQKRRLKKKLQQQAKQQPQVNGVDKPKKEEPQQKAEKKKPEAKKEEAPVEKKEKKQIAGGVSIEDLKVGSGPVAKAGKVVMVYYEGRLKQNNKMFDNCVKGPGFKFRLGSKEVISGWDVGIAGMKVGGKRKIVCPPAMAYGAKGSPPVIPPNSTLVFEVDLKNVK
Description: Peptidylprolyl cis-trans isomerase assay, inhibition by FK506. As to conditions: 5 μM FK506, 100 nM His-FKBP46, 15° C.; FIG. 3B curve B. The series is classed as biochemical, Sf9 insect cell. The procedure: (§1) FIGS. 3A and 3B show FK506 binding and Peptidylprolyl cis-trans isomerase activities of FKBP46. In FIG. 3A, purified His-FKBP46 immobilized on Ni^2+ affinity resin was incubated with [^3 H]dihydro-FK506 in the presence […] or absence of cold FK506. The numbers under each column represent different amounts of nuclear extracts in microliters from Sf9 cells--expressing His-FKBP46 bound to separate Ni^2+ affinity resins. Nuclear extracts from wild type (WT) baculovirus infected Sf9 cells (10 μl) were bound to Ni^2+ affinity resin and used as a control. The amount of radioactivity associated with each resin sample is represented in disintegrations/min. In FIG. 3B, time-dependant release of p-nitroanilide by chymotrypsin from trans N-succinyl-Ala-Leu-Pro-Phe-p-nitroanilide measured by absorbance at 400 nm. […]
Peptidylprolyl cis-trans Isomerase Assay--Peptidylprolyl isomerase activity of FKBP46 was assayed as described previously (Harrison, R. K., and Stein, R. L. (1990) Biochemistry 29, 3813-3816 and Park, S. T., et al. (1992) J. Biol. Chem. 267, 3316-3324) with some modifications. […] The reaction was started by the addition of chymotrypsin (100 μg/ml final) (Sigma), and the release of p-nitroanilide by chymotrypsin was measured by recording the increase in absorbance at 400 nm using a Perkin Elmer λ 3B spectrophotometer connected to a chart recorder. […]

Series [3] concerns the target T1, FKBP46. The series is described as follows: [3H]Dihydro-FK506 binding assay, His-FKBP46 immobilized on Ni2+ affinity resin. Details: species or system Sf9 insect cell. The procedure:
as §1, with “nm. Curve A reflects the rate of release of p-nitroanilide in a reaction catalyzed by FKBP46. Curve B is the same as curve A but in the presence of 5 μM FK506. Curve C is the same but without FKBP46.” for “nm.”
The radioactivity associated with FKBP46 was measured by scintillation counting. […] Chymotrypsin hydrolyzes the trans form to generate p-nitroanilide, which can be quantitated spectrophotometrically at 400 nm. […] From these curves, the specific activity of FKBP46 was calculated using the first order rate constant (S^-1), and the molar concentration of FKBP46 to be about 7.8×10^6 […]. […]

Series [4] deals with N-succinyl-Ala-Leu-Pro-Phe-p-nitroanilide.
Series [5] has as its system N-succinyl-Ala-Leu-Pro-Phe-p-nitroanilide. Description: Peptidylprolyl cis-trans isomerase assay, specific activity of the immunophilin. As to conditions: His-FKBP46 100 nM, substrate 75 μM, 15° C. It counts as biochemical. The procedure:
Peptidylprolyl cis-trans Isomerase Assay--Peptidylprolyl isomerase activity of FKBP46 was assayed as described previously (Harrison, R. K., and Stein, R. L. (1990) Biochemistry 29, 3813-3816 and Park, S. T., et al. (1992) J. Biol. Chem. 267, 3316-3324) with some modifications. His-FKBP46 (100 nM final) was incubated with the peptide substrate N-succinyl-Ala-Leu-Pro-Phe-p-nitroanilide (75 μM final) (Bachem, Switzerland) at 15° C. for 15 min. The reaction was started by the addition of chymotrypsin (100 μg/ml final) (Sigma), and the release of p-nitroanilide by chymotrypsin was measured by recording the increase in absorbance at 400 nm using a Perkin Elmer λ 3B spectrophotometer connected to a chart recorder.
The radioactivity associated with FKBP46 was measured by scintillation counting. […] Under these conditions, maximal binding was obtained when 10 μl of nuclear extracts containing recombinant His-FKBP46 were immobilized on Ni^2+ affinity resin (FIG. 3A, column 6). […] Chymotrypsin hydrolyzes the trans form to generate p-nitroanilide, which can be quantitated spectrophotometrically at 400 nm. […] From these curves, the specific activity of FKBP46 was calculated using the first order rate constant (S^-1), and the molar concentration of FKBP46 to be about 7.8×10^6 […]. […]

In the case of “hFKBP12: human FK binding protein FKBP12, comparison immunophilin”, the specific activity result in series [1] is “about 4.3×10^6 s^-1. M^-1”. The term inhibition denotes the drop in the measured response relative to a control, in per cent. Lower therefore signals a response near the control. `C=CC[C@@H]1/C=C(\C)C[C@H](C)C[C@H](OC)[C@H]2O[C@@](O)(C(=O)C(=O)N3CCCC[C@H]3C(=O)O[C@H](/C(C)=C/[C@@H]3CC[C@@H](O)[C@H](OC)C3)[C@H](C)[C@@H](O)CC1=O)[C@H](C)C[C@@H]2OC` [FK506] yielded an inhibition at 5 µM in series [2] of roughly 50%. In addition, the “[3H]dihydro-FK506 binding to FKBP46 in the presence of excess cold FK506” value in series [3] (5000-fold excess of cold FK506, comparable with mock purified wild type extract, FIG. 3A columns 3, 5, 7) is on record as “minimal”. The molecule recombinant His-FKBP46 displayed a peptidylprolyl cis-trans isomerase activity (chymotrypsin-coupled release of p-nitroanilide, absorbance at 400 nm) in series [4] of 7.8e+06 s⁻¹ M⁻¹.

As for `[3H]CC([3H])C[C@@H]1/C=C(\C)C[C@H](C)C[C@H](OC)[C@H]2O[C@@](O)(C(=O)C(=O)N3CCCC[C@H]3C(=O)O[C@H](/C(C)=C/[C@@H]3CC[C@@H](O)[C@H](OC)C3)[C@H](C)[C@@H](O)CC1=O)[C@H](C)C[C@@H]2OC` (stereo partly drawn) [[^3 H]dihydro-FK506], in series [3] (50 nM [3H]dihydro-FK506, on ice 18 h, absence of cold FK506, FIG. 3A), the “[3H]dihydro-FK506 binding to FKBP46 (radioactivity associated with resin)” value was “can bind specifically to FKBP46 in a dose-dependent manner”.

B1: FKBP46: novel Sf9 insect cell nuclear immunophilin, SEQ ID NO:2; tested as recombinant His-tagged protein (protein)
chain: T1 sequence (Q26486 1-412)
modifications: His tag
notes: tested as recombinant His-tagged protein
On to B1, for which the “specific activity (first order rate constant / molar concentration)” value in series [5] was “about 7.8×10^6 s^-1. M^-1”.
